Measured values from patent US20240067696A1 (ZEALAND PHARMA A S, published 2024).
Non-standard residues stand in square brackets, D forms with d. Dab = NCC[C@H](N)C(=O)O; Aib = CC(C)(N)C(=O)O

molecular target: human glucagon receptor (human, UniProt P47871 26-477); test: cell-based or functional assay
Sequence (P47871 26-477): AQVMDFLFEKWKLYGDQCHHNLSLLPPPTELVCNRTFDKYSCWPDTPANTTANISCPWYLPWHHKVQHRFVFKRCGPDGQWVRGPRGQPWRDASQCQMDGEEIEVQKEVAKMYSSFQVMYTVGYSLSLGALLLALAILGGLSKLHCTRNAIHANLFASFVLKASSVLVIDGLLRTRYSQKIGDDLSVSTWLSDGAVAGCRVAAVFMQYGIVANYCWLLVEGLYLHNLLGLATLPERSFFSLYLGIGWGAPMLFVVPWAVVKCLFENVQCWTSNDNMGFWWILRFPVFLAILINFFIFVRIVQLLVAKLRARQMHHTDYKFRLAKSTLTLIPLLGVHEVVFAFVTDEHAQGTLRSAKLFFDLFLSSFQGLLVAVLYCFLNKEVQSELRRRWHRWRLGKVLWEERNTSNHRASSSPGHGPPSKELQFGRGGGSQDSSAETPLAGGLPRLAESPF

Binder	GCG-R EC50 in vitro [nM] (cAMP, AlphaScreen, HEK293 cells expressing human Glucagon-R)
H-HSQGTFTSDYSKYLD[Aib]ARAKSFVEWLEKT-OH (SMILES CC(C)C[C@H](NC(=O)[C@H](Cc1c[nH]c2ccccc12)NC(=O)[C@H](CCC(=O)O)NC(=O)[C@@H](NC(=O)[C@H](Cc1ccccc1)NC(=O)[C@H](CO)NC(=O)[C@H](CCCCN)NC(=O)[C@H](C)NC(=O)[C@H](CCCNC(=N)N)NC(=O)[C@H](C)NC(=O)C(C)(C)NC(=O)[C@H](CC(=O)O)NC(=O)[C@H](CC(C)C)NC(=O)[C@H](Cc1ccc(O)cc1)NC(=O)[C@H](CCCCN)NC(=O)[C@H](CO)NC(=O)[C@H](Cc1ccc(O)cc1)NC(=O)[C@H](CC(=O)O)NC(=O)[C@H](CO)NC(=O)[C@@H](NC(=O)[C@H](Cc1ccccc1)NC(=O)[C@@H](NC(=O)CNC(=O)[C@H](CCC(N)=O)NC(=O)[C@H](CO)NC(=O)[C@@H](N)Cc1c[nH]cn1)[C@@H](C)O)[C@@H](C)O)C(C)C)C(=O)N[C@@H](CCC(=O)O)C(=O)N[C@@H](CCCCN)C(=O)N[C@H](C(=O)O)[C@@H](C)O) [Compound 29]	0.023
H-HSQGTFTSDYSKYLDSARAEDFVKWLEET-OH [Compound 2]	0.18
H-HSQGTFTSDYSKYLD[Aib]ARAEKFVEWLEST-OH (SMILES CC(C)C[C@H](NC(=O)[C@H](Cc1c[nH]c2ccccc12)NC(=O)[C@H](CCC(=O)O)NC(=O)[C@@H](NC(=O)[C@H](Cc1ccccc1)NC(=O)[C@H](CCCCN)NC(=O)[C@H](CCC(=O)O)NC(=O)[C@H](C)NC(=O)[C@H](CCCNC(=N)N)NC(=O)[C@H](C)NC(=O)C(C)(C)NC(=O)[C@H](CC(=O)O)NC(=O)[C@H](CC(C)C)NC(=O)[C@H](Cc1ccc(O)cc1)NC(=O)[C@H](CCCCN)NC(=O)[C@H](CO)NC(=O)[C@H](Cc1ccc(O)cc1)NC(=O)[C@H](CC(=O)O)NC(=O)[C@H](CO)NC(=O)[C@@H](NC(=O)[C@H](Cc1ccccc1)NC(=O)[C@@H](NC(=O)CNC(=O)[C@H](CCC(N)=O)NC(=O)[C@H](CO)NC(=O)[C@@H](N)Cc1c[nH]cn1)[C@@H](C)O)[C@@H](C)O)C(C)C)C(=O)N[C@@H](CCC(=O)O)C(=O)N[C@@H](CO)C(=O)N[C@H](C(=O)O)[C@@H](C)O) [Compound 34]	0.028
H-HS[Dab](Ac)GTFTSDYSKYLD[Aib]ARAESFVKWLEST-OH (SMILES CC(=O)NCC[C@H](NC(=O)[C@H](CO)NC(=O)[C@@H](N)Cc1c[nH]cn1)C(=O)NCC(=O)N[C@H](C(=O)N[C@@H](Cc1ccccc1)C(=O)N[C@H](C(=O)N[C@@H](CO)C(=O)N[C@@H](CC(=O)O)C(=O)N[C@@H](Cc1ccc(O)cc1)C(=O)N[C@@H](CO)C(=O)N[C@@H](CCCCN)C(=O)N[C@@H](Cc1ccc(O)cc1)C(=O)N[C@@H](CC(C)C)C(=O)N[C@@H](CC(=O)O)C(=O)NC(C)(C)C(=O)N[C@@H](C)C(=O)N[C@@H](CCCNC(=N)N)C(=O)N[C@@H](C)C(=O)N[C@@H](CCC(=O)O)C(=O)N[C@@H](CO)C(=O)N[C@@H](Cc1ccccc1)C(=O)N[C@H](C(=O)N[C@@H](CCCCN)C(=O)N[C@@H](Cc1c[nH]c2ccccc12)C(=O)N[C@@H](CC(C)C)C(=O)N[C@@H](CCC(=O)O)C(=O)N[C@@H](CO)C(=O)N[C@H](C(=O)O)[C@@H](C)O)C(C)C)[C@@H](C)O)[C@@H](C)O) [Compound 32]	0.0093
H-HSQGTFTSDYSKYLE[Aib]ARAEEFVKWLEST-OH (SMILES CC(C)C[C@H](NC(=O)[C@H](Cc1c[nH]c2ccccc12)NC(=O)[C@H](CCCCN)NC(=O)[C@@H](NC(=O)[C@H](Cc1ccccc1)NC(=O)[C@H](CCC(=O)O)NC(=O)[C@H](CCC(=O)O)NC(=O)[C@H](C)NC(=O)[C@H](CCCNC(=N)N)NC(=O)[C@H](C)NC(=O)C(C)(C)NC(=O)[C@H](CCC(=O)O)NC(=O)[C@H](CC(C)C)NC(=O)[C@H](Cc1ccc(O)cc1)NC(=O)[C@H](CCCCN)NC(=O)[C@H](CO)NC(=O)[C@H](Cc1ccc(O)cc1)NC(=O)[C@H](CC(=O)O)NC(=O)[C@H](CO)NC(=O)[C@@H](NC(=O)[C@H](Cc1ccccc1)NC(=O)[C@@H](NC(=O)CNC(=O)[C@H](CCC(N)=O)NC(=O)[C@H](CO)NC(=O)[C@@H](N)Cc1c[nH]cn1)[C@@H](C)O)[C@@H](C)O)C(C)C)C(=O)N[C@@H](CCC(=O)O)C(=O)N[C@@H](CO)C(=O)N[C@H](C(=O)O)[C@@H](C)O) [Compound 37]	0.094
H-HSQGTFTSDYSKYLD[Aib]ARAEEFVAWLEST-OH (SMILES CC(C)C[C@H](NC(=O)[C@H](Cc1c[nH]c2ccccc12)NC(=O)[C@H](C)NC(=O)[C@@H](NC(=O)[C@H](Cc1ccccc1)NC(=O)[C@H](CCC(=O)O)NC(=O)[C@H](CCC(=O)O)NC(=O)[C@H](C)NC(=O)[C@H](CCCNC(=N)N)NC(=O)[C@H](C)NC(=O)C(C)(C)NC(=O)[C@H](CC(=O)O)NC(=O)[C@H](CC(C)C)NC(=O)[C@H](Cc1ccc(O)cc1)NC(=O)[C@H](CCCCN)NC(=O)[C@H](CO)NC(=O)[C@H](Cc1ccc(O)cc1)NC(=O)[C@H](CC(=O)O)NC(=O)[C@H](CO)NC(=O)[C@@H](NC(=O)[C@H](Cc1ccccc1)NC(=O)[C@@H](NC(=O)CNC(=O)[C@H](CCC(N)=O)NC(=O)[C@H](CO)NC(=O)[C@@H](N)Cc1c[nH]cn1)[C@@H](C)O)[C@@H](C)O)C(C)C)C(=O)N[C@@H](CCC(=O)O)C(=O)N[C@@H](CO)C(=O)N[C@H](C(=O)O)[C@@H](C)O) [Compound 35]	0.014
H-HSQGTFTSDYSKYLD[Aib]ARAESFVKWLESA-OH (SMILES CC(C)C[C@H](NC(=O)[C@H](Cc1c[nH]c2ccccc12)NC(=O)[C@H](CCCCN)NC(=O)[C@@H](NC(=O)[C@H](Cc1ccccc1)NC(=O)[C@H](CO)NC(=O)[C@H](CCC(=O)O)NC(=O)[C@H](C)NC(=O)[C@H](CCCNC(=N)N)NC(=O)[C@H](C)NC(=O)C(C)(C)NC(=O)[C@H](CC(=O)O)NC(=O)[C@H](CC(C)C)NC(=O)[C@H](Cc1ccc(O)cc1)NC(=O)[C@H](CCCCN)NC(=O)[C@H](CO)NC(=O)[C@H](Cc1ccc(O)cc1)NC(=O)[C@H](CC(=O)O)NC(=O)[C@H](CO)NC(=O)[C@@H](NC(=O)[C@H](Cc1ccccc1)NC(=O)[C@@H](NC(=O)CNC(=O)[C@H](CCC(N)=O)NC(=O)[C@H](CO)NC(=O)[C@@H](N)Cc1c[nH]cn1)[C@@H](C)O)[C@@H](C)O)C(C)C)C(=O)N[C@@H](CCC(=O)O)C(=O)N[C@@H](CO)C(=O)N[C@@H](C)C(=O)O) [Compound 30]	0.016
H-HSQGTFTSDYSKYLD[Aib]ARAEEFVKWLEET-OH (SMILES CC(C)C[C@H](NC(=O)[C@H](Cc1c[nH]c2ccccc12)NC(=O)[C@H](CCCCN)NC(=O)[C@@H](NC(=O)[C@H](Cc1ccccc1)NC(=O)[C@H](CCC(=O)O)NC(=O)[C@H](CCC(=O)O)NC(=O)[C@H](C)NC(=O)[C@H](CCCNC(=N)N)NC(=O)[C@H](C)NC(=O)C(C)(C)NC(=O)[C@H](CC(=O)O)NC(=O)[C@H](CC(C)C)NC(=O)[C@H](Cc1ccc(O)cc1)NC(=O)[C@H](CCCCN)NC(=O)[C@H](CO)NC(=O)[C@H](Cc1ccc(O)cc1)NC(=O)[C@H](CC(=O)O)NC(=O)[C@H](CO)NC(=O)[C@@H](NC(=O)[C@H](Cc1ccccc1)NC(=O)[C@@H](NC(=O)CNC(=O)[C@H](CCC(N)=O)NC(=O)[C@H](CO)NC(=O)[C@@H](N)Cc1c[nH]cn1)[C@@H](C)O)[C@@H](C)O)C(C)C)C(=O)N[C@@H](CCC(=O)O)C(=O)N[C@@H](CCC(=O)O)C(=O)N[C@H](C(=O)O)[C@@H](C)O) [Compound 36]	0.01
H-HSQGTFTSDYSKYLD[Aib]ARAEEFVSWLEKT-OH (SMILES CC(C)C[C@H](NC(=O)[C@H](Cc1c[nH]c2ccccc12)NC(=O)[C@H](CO)NC(=O)[C@@H](NC(=O)[C@H](Cc1ccccc1)NC(=O)[C@H](CCC(=O)O)NC(=O)[C@H](CCC(=O)O)NC(=O)[C@H](C)NC(=O)[C@H](CCCNC(=N)N)NC(=O)[C@H](C)NC(=O)C(C)(C)NC(=O)[C@H](CC(=O)O)NC(=O)[C@H](CC(C)C)NC(=O)[C@H](Cc1ccc(O)cc1)NC(=O)[C@H](CCCCN)NC(=O)[C@H](CO)NC(=O)[C@H](Cc1ccc(O)cc1)NC(=O)[C@H](CC(=O)O)NC(=O)[C@H](CO)NC(=O)[C@@H](NC(=O)[C@H](Cc1ccccc1)NC(=O)[C@@H](NC(=O)CNC(=O)[C@H](CCC(N)=O)NC(=O)[C@H](CO)NC(=O)[C@@H](N)Cc1c[nH]cn1)[C@@H](C)O)[C@@H](C)O)C(C)C)C(=O)N[C@@H](CCC(=O)O)C(=O)N[C@@H](CCCCN)C(=O)N[C@H](C(=O)O)[C@@H](C)O) [Compound 33]	0.044
H-HSQGTFTSDYSKYLD[Aib]ARAESFVKWLEST-NH2 (SMILES CC(C)C[C@H](NC(=O)[C@H](Cc1c[nH]c2ccccc12)NC(=O)[C@H](CCCCN)NC(=O)[C@@H](NC(=O)[C@H](Cc1ccccc1)NC(=O)[C@H](CO)NC(=O)[C@H](CCC(=O)O)NC(=O)[C@H](C)NC(=O)[C@H](CCCNC(=N)N)NC(=O)[C@H](C)NC(=O)C(C)(C)NC(=O)[C@H](CC(=O)O)NC(=O)[C@H](CC(C)C)NC(=O)[C@H](Cc1ccc(O)cc1)NC(=O)[C@H](CCCCN)NC(=O)[C@H](CO)NC(=O)[C@H](Cc1ccc(O)cc1)NC(=O)[C@H](CC(=O)O)NC(=O)[C@H](CO)NC(=O)[C@@H](NC(=O)[C@H](Cc1ccccc1)NC(=O)[C@@H](NC(=O)CNC(=O)[C@H](CCC(N)=O)NC(=O)[C@H](CO)NC(=O)[C@@H](N)Cc1c[nH]cn1)[C@@H](C)O)[C@@H](C)O)C(C)C)C(=O)N[C@@H](CCC(=O)O)C(=O)N[C@@H](CO)C(=O)N[C@H](C(N)=O)[C@@H](C)O) [Compound 31]	0.0072
